We go through eleven molecules from US20260258155A1 (TRIVENI BIO, published 2026).

For test [1], the target named is human KLK5 (hKLK5), active form (human, UniProt Q9Y337 67-293). Briefly: cell-based or functional assay.
In test [2] the target is mouse KLK5 (mKLK5) (mouse). Briefly: cell-based or functional assay.
Test [3] deals with T1, mouse KLK5 (mKLK5) (mouse).
T1 construct: Enzymatically active in the protease assay
Briefly: Biacore SPR, antibody captured on Protein A chip, single-cycle kinetics, 25 C.
Experimental: All screening assays were performed at 25 C. The running buffer used was 20 mM HEPES, 300 mM NaCl, 0.01% Tween-20, pH 7.5. Antibodies (1 ug/mL) were captured on Fc2-4 of a Series S ProteinA Sensor Chip (Cytiva) flowing at 10 ul/mL for 30 s. Kinetics measurements were made in single-cycle kinetics mode with a series of 4-5 concentrations with top concentration of 25-100 nM and serial dilution 4-fold. Contact time was typically 300 s and dissociation time ranged from 1800-3600 s. Flow rate of 30 ul/mL was typically used. The sensor chip was regenerated with 10 mM glycine, pH 1.5 with a contact time of 30 s flowing at 50 ul/mL.

B1: KLK5-L1-Ab3 (antibody, V domains shown)
VH: EVQLVESGGGLVQPGGSLRLSCAASGFTFEHYSMNWVRQAPGKGLEWVSYISSSSSYIDYADSVKGRFTISRDNAKNSLYLQMNSLRAEDTAVYYCARDLTSMQSRDYYYYGMDVWGQGTTVTVSS
VL: DIQMTQSPSSVSASVGDRVTITCRASQGISSWLAWYQQKPGKAPKLLIYAASSLQSGVPSRFSGSGSGTDFTLTISSLQPEDFATYYCQQVPIFPYTFGGGTKVEIK
For B1, in test [1], the “hKLK5 IC50 (protease inhibition)” value was determined as 1.71 nM and the “hKLK5 IC90 (protease inhibition)” value worked out at 15 nM. In addition, in the test with mouse KLK5 (mKLK5) [2], the “mKLK5 IC50 (protease inhibition)” value was 4.97 nM and the “mKLK5 IC90 (protease inhibition)” value stood at 40.1 nM. Moreover, in the test with mouse KLK5 (mKLK5) [3], binding was characterised by a dissociation constant (Kd) of 0.32 nM.

B2: KLK5-L3-Ab2 (antibody, V domains shown)
VH: QVQLVQSGAEVKKPGSSVKVSCKASGGTFSGYSISWVRQAPGQGLEWMGLIFPISGTANYAQKFQGRVTITADESTSTAYMELSSLRSEDTAVYYCARGSASGYYDRSYYYYGMDVWGQGTTVTVSS
VL: DIQMTQSPSSVSASVGDRVTITCRASQGISSWLAWYQQKPGKAPKLLIYAASSLQSGVPSRFSGSGSGTDFTLTISSLQPEDFATYYCQQVSSFPYTFGGGTKVEIK
B2: in test [1], the “hKLK5 IC50 (protease inhibition)” value is 4.45 nM and the “hKLK5 IC90 (protease inhibition)” value turned out to be 24 nM. Further, in the test with mouse KLK5 (mKLK5) [2], the “mKLK5 IC50 (protease inhibition)” value turned out to be 15 nM and the “mKLK5 IC90 (protease inhibition)” value came to 91.3 nM. In the test with mouse KLK5 (mKLK5) [3], this molecule had a Kd of 3.8 nM.

B3: KLK5-L3-Ab3 (antibody, V domains shown)
VH: QVQLVQSGAEVKKPGSSVKVSCKASGGTFNNYHISWVRQAPGQGLEWMGGIIPPFGTAHYAQKFQGRVTITADESTSTAYMELSSLRSEDTAVYYCARGSASGYYDRSYYYYGMDVWGQGTTVTVSS
VL: DIQMTQSPSSVSASVGDRVTITCRASQGISSWLAWYQQKPGKAPKLLIYAASSLQSGVPSRFSGSGSGTDFTLTISSLQPEDFATYYCQQVSSFPYTFGGGTKVEIK
As to B3, in test [1], the “hKLK5 IC50 (protease inhibition)” value came out at 2.81 nM and the “hKLK5 IC90 (protease inhibition)” value was 11.1 nM. In addition, in the test with mouse KLK5 (mKLK5) [2], the “mKLK5 IC50 (protease inhibition)” value turned out to be 14.9 nM and the “mKLK5 IC90 (protease inhibition)” value came to 87 nM. Besides, the Kd with mouse KLK5 (mKLK5) [3] was 7.2 nM.

B4: KLK5-L3-Ab4 (antibody, V domains shown)
VH: QVQLVQSGAEVKKPGSSVKVSCKASGGTFNNYHISWVRQAPGQGLEWMGGIIPPFGTAHYAQKFQGRVTITADESTSTAYMELSSLRSEDTAVYYCARGEASGYYDRSYYYYGLDVWGQGTTVTVSS
VL: DIQMTQSPSSVSASVGDRVTITCRASQGISSWLAWYQQKPGKAPKLLIYAASSLQSGVPSRFSGSGSGTDFTLTISSLQPEDFATYYCQQVSSFPYTFGGGTKVEIK
For the molecule B4, in test [1], the “hKLK5 IC50 (protease inhibition)” value worked out at 1.76 nM and the “hKLK5 IC90 (protease inhibition)” value was 9.81 nM. In the test with mouse KLK5 (mKLK5) [2], the “mKLK5 IC50 (protease inhibition)” value was 8.27 nM and the “mKLK5 IC90 (protease inhibition)” value turned out to be 83.2 nM. In the test with mouse KLK5 (mKLK5) [3], this molecule had a Kd of 8.8 nM.

B5: KLK5-L3-Ab6 (antibody, V domains shown)
VH: QVQLVQSGAEVKKPGSSVKVSCKASGGTFSGYVISWVRQAPGQGLEWMGGIFPISGYAVYAQKFQGRVTITADESTSTAYMELSSLRSEDTAVYYCARASASGYYDRSYYYYGMDVWGQGTTVTVSS
VL: DIQMTQSPSSVSASVGDRVTITCRASQGISSWLAWYQQKPGKAPKLLIYAASSLQSGVPSRFSGSGSGTDFTLTISSLQPEDFATYYCQQVSSFPQTFGGGTKVEIK
As for B5, in the test with mouse KLK5 (mKLK5) [2], the “mKLK5 IC50 (protease inhibition)” value was determined as 12.7 nM and the “mKLK5 IC90 (protease inhibition)” value was 80.8 nM. In the test with mouse KLK5 (mKLK5) [3], the Kd was 12 nM.

B6: KLK5-L1-Ab4 (antibody, V domains shown)
VH: EVQLVESGGGLVQPGGSLRLSCAASGFTFNDYSMNWVRQAPGKGLEWVSYISSSSSYIDYADSVKGRFTISRDNAKNSLYLQMNSLRAEDTAVYYCARDLTSMQSRDYYYYGMDVWGQGTTVTVSS
VL: DIQMTQSPSSVSASVGDRVTITCRASQGISSWLAWYQQKPGKAPKLLIYAASSLQSGVPSRFSGSGSGTDFTLTISSLQPEDFATYYCQQVPIFPYTFGGGTKVEIK
Take B6: in test [1], the “hKLK5 IC50 (protease inhibition)” value is 2.49 nM and the “hKLK5 IC90 (protease inhibition)” value is 10.6 nM. Also, in the test with mouse KLK5 (mKLK5) [2], the “mKLK5 IC50 (protease inhibition)” value was 9.26 nM and the “mKLK5 IC90 (protease inhibition)” value was found to be 81.2 nM. The molecule further came in with a Kd in the test with mouse KLK5 (mKLK5) [3] of 0.66 nM.

B7: KLK5-L1-Ab2 (antibody, V domains shown)
VH: EVQLVESGGGLVQPGGSLRLSCAASGFTFGSYAMNWVRQAPGKGLEWVSYISSSSSFIDYADSVKGRFTISRDNAKNSLYLQMNSLRAEDTAVYYCARDLTSMQSRDYYYYGMDVWGQGTTVTVSS
VL: DIQMTQSPSSVSASVGDRVTITCRASQGISSWLAWYQQKPGKAPKLLIYAASSLQSGVPSRFSGSGSGTDFTLTISSLQPEDFATYYCQQVPIFPYTFGGGTKVEIK
As for B7, in test [1], the “hKLK5 IC50 (protease inhibition)” value turned out to be 2.26 nM and the “hKLK5 IC90 (protease inhibition)” value came out at 13.3 nM. In the test with mouse KLK5 (mKLK5) [2], the “mKLK5 IC50 (protease inhibition)” value came out at 4.43 nM and the “mKLK5 IC90 (protease inhibition)” value was 34.6 nM. For the same molecule, the affinity with mouse KLK5 (mKLK5) [3], expressed as Kd, was 0.41 nM.

B8: KLK5-L1-Ab5 (antibody, V domains shown)
VH: EVQLVESGGGLVQPGGSLRLSCAASGFTFEHYSMNWVRQAPGKGLEWVSYISSSSSYIDYADSVKGRFTISRDNAKNSLYLQMNSLRAEDTAVYYCARDLTDRQSRDYYYYGMDVWGQGTTVTVSS
VL: DIQMTQSPSSVSASVGDRVTITCRASQGISSWLAWYQQKPGKAPKLLIYAASSLQSGVPSRFSGSGSGTDFTLTISSLQPEDFATYYCQQVPIFPYTFGGGTKVEIK
notes: also called KLK-L1-Ab5
In the case of B8, in the test with mouse KLK5 (mKLK5) [2], the “mKLK5 IC50 (protease inhibition)” value turned out to be 4.1 nM and the “mKLK5 IC90 (protease inhibition)” value is 25 nM. This molecule registered a dissociation constant (Kd) with mouse KLK5 (mKLK5) [3] of 0.26 nM.

B9: KLK5-L3-Ab7 (antibody, V domains shown)
VH: QVQLVQSGAEVRKPGSSVKVSCKASGGTFSNYHISWVRQAPGQGLEWMGGIFPTFGTANYAQKFQGRVTITADESTSTAYMELSSLRSEDTAVYYCARGSASGYYDRSYYYDGMDVWGQGTTVTVSS
VL: DIQMTQSPSSVSASVGDRVTITCRASQGISSWLAWYQQKPGKAPKLLIYAASSLQSGVPSRFSGSGSGTDFTLTISSLQPEDFATYYCQQVISFPYTFGGGTKVEIK
Consider B9, for which, in the test with mouse KLK5 (mKLK5) [2], the “mKLK5 IC50 (protease inhibition)” value turned out to be 2.17 nM and the “mKLK5 IC90 (protease inhibition)” value is 10.7 nM. Also, in the test with mouse KLK5 (mKLK5) [3], binding was characterised by a dissociation constant (Kd) of 1.4 nM.

B10: KLK5-L2-Ab4 (antibody, V domains shown)
VH: QLQLQESGPGLVKPSETLSLTCTVSGGSIPSSSYYWSWIRQPPGKGLEWIGNIYYSGSTYYNPSLKSRVTISVDTSKNQFSLKLSSVTAADTAVYYCARGEYDRSYYYWGLDVWGQGTTVTVSS
VL: not shown
Consider B10, for which, in test [1], the “hKLK5 IC50 (protease inhibition)” value was determined as 2.04 nM and the “hKLK5 IC90 (protease inhibition)” value came to 9.86 nM. Besides, in the test with mouse KLK5 (mKLK5) [2], the “mKLK5 IC50 (protease inhibition)” value was 1.68 nM and the “mKLK5 IC90 (protease inhibition)” value was determined as 15.6 nM. In the test with mouse KLK5 (mKLK5) [3], this molecule registered a Kd of 0.47 nM.

B11: KLK5-L2-Ab3 (antibody, V domains shown)
VH: QLQLQESGPGLVKPSETLSLTCTVSGGSIPSSSYYWSWIRQPPGKGLEWIGNIYYSGSTYYNPSLKSRVTISVDTSKNQFSLKLSSVTAADTAVYYCARGEYDRSYYFWGMDVWGQGTTVTVSS
VL: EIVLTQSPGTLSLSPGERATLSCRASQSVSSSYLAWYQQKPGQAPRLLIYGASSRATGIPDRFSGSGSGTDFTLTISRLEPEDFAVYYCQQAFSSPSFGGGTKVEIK
On to B11, for which, in test [1], the “hKLK5 IC50 (protease inhibition)” value came to 2.26 nM and the “hKLK5 IC90 (protease inhibition)” value stood at 10.2 nM. In the test with mouse KLK5 (mKLK5) [2], the “mKLK5 IC50 (protease inhibition)” value came out at 1.82 nM and the “mKLK5 IC90 (protease inhibition)” value stood at 29.5 nM. The same molecule had a Kd in the test with mouse KLK5 (mKLK5) [3] of 0.59 nM.

The Kd is a measure of binding affinity in units of concentration. Low readings indicate higher affinity, high ones lower affinity.
